Laboratory results reported in the supplement of paper PMC9112550, “Optimization of the antimicrobial peptide Bac7 by deep mutational scanning” (BMC Biology, 2022).

test system: Escherichia coli TOP10; experiment: shrunken log2 fold change of peptide-encoding DNA abundance (4.5 h post-induction vs induction); higher = less antimicrobial activity (less host growth inhibition); settings: time post-induction: 4.5 h; library: site-saturation at positions 5, 18, 19, 20
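Further: peptides expressed intracellularly from a pBAD plasmid library in pooled LB shake-flask culture, induced with 0.3% L-arabinose, DNA abundance read by NGS, three biological replicates, DESeq2 with apeglm shrinkage.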

Row | Sequence | shrunken log2 fold change
1 | RRIRPRPPRLPRPRPRPCHVPRP | -0.0695
2 | RRIRWRPPRLPRPRPRPNIHPRP | -0.392
3 | RRIRIRPPRLPRPRPRPVQCPRP | 0.0517
4 | RRIRCRPPRLPRPRPRPESWPRP | 0.598
5 | RRIRRRPPRLPRPRPRPHAPPRP | 0.353
6 | RRIRQRPPRLPRPRPRPLIAPRP | -0.124
7 | RRIRNRPPRLPRPRPRPCTMPRP | -0.199
8 | RRIRGRPPRLPRPRPRPLLCPRP | 1.17
9 | RRIRARPPRLPRPRPRPWHVPRP | -0.0219
10 | RRIRVRPPRLPRPRPRPMQIPRP | -0.0185
11 | RRIRTRPPRLPRPRPRPAWHPRP | 0.282
12 | RRIRERPPRLPRPRPRPWEKPRP | -0.00277
13 | RRIRCRPPRLPRPRPRPVTPPRP | 0.23
14 | RRIRYRPPRLPRPRPRPVDIPRP | -0.00973
15 | RRIRERPPRLPRPRPRPDASPRP | 0.0331
16 | RRIRQRPPRLPRPRPRPNRMPRP | 0.00219
17 | RRIRFRPPRLPRPRPRPIRQPRP | -0.297
18 | RRIRKRPPRLPRPRPRPLNSPRP | 0.00355
19 | RRIRYRPPRLPRPRPRPRMYPRP | -0.627
20 | RRIRKRPPRLPRPRPRPRSSPRP | 0.263
21 | RRIRFRPPRLPRPRPRPMCAPRP | 0.253
22 | RRIRIRPPRLPRPRPRPELSPRP | -0.476
23 | RRIRSRPPRLPRPRPRPPITPRP | -0.177
24 | RRIRMRPPRLPRPRPRPGCPPRP | 0.521
25 | RRIRKRPPRLPRPRPRPTGIPRP | 0.0402

Row | Sequence | shrunken log2 fold change
26 | RRIRSRPPRLPRPRPRPNGVPRP | -0.00885
27 | RRIRDRPPRLPRPRPRPDFSPRP | 0.0345
28 | RRIRRRPPRLPRPRPRPGPQPRP | 0.337
29 | RRIRDRPPRLPRPRPRPSRHPRP | 0.0369
30 | RRIRLRPPRLPRPRPRPNNQPRP | -0.287
31 | RRIRDRPPRLPRPRPRPSWLPRP | 0.339
32 | RRIRRRPPRLPRPRPRPMTGPRP | 0.0638
33 | RRIRFRPPRLPRPRPRPCIKPRP | -0.0867
34 | RRIRSRPPRLPRPRPRPKWHPRP | 0.0951
35 | RRIRHRPPRLPRPRPRPVSIPRP | -0.00904
36 | RRIRARPPRLPRPRPRPGNKPRP | -0.186
37 | RRIRQRPPRLPRPRPRPYWPPRP | -0.11
38 | RRIRTRPPRLPRPRPRPEWSPRP | 0.0383
39 | RRIRDRPPRLPRPRPRPTFPPRP | 0.0873
40 | RRIRYRPPRLPRPRPRPAMHPRP | -0.045
41 | RRIRSRPPRLPRPRPRPCGWPRP | 0.148
42 | RRIRNRPPRLPRPRPRPIRPPRP | -0.00213
43 | RRIRCRPPRLPRPRPRPCQGPRP | -0.0713
44 | RRIRSRPPRLPRPRPRPNMAPRP | -0.0738
45 | RRIRRRPPRLPRPRPRPQLAPRP | -0.0216
46 | RRIRPRPPRLPRPRPRPCLNPRP | -0.35
47 | RRIRVRPPRLPRPRPRPIYHPRP | -0.461
48 | RRIRQRPPRLPRPRPRPWGYPRP | -0.166
49 | RRIRLRPPRLPRPRPRPWGAPRP | 0.261
50 | RRIRQRPPRLPRPRPRPCMLPRP | -0.239

Row | Sequence | shrunken log2 fold change
51 | RRIRFRPPRLPRPRPRPWFSPRP | -0.0536
52 | RRIRTRPPRLPRPRPRPCFGPRP | 0.000833
53 | RRIRDRPPRLPRPRPRPLYFPRP | -0.601
54 | RRIRPRPPRLPRPRPRPAWQPRP | 0.277
55 | RRIRVRPPRLPRPRPRPNKRPRP | -0.158
56 | RRIRKRPPRLPRPRPRPGRHPRP | 0.227
57 | RRIRFRPPRLPRPRPRPPLGPRP | 1.33
58 | RRIRLRPPRLPRPRPRPFCCPRP | -0.255
59 | RRIRRRPPRLPRPRPRPMDAPRP | 0.161
60 | RRIRERPPRLPRPRPRPRCWPRP | 0.014
61 | RRIRCRPPRLPRPRPRPERNPRP | -0.223
62 | RRIRVRPPRLPRPRPRPDDFPRP | 0.0492
63 | RRIRVRPPRLPRPRPRPYTMPRP | -0.49
64 | RRIRMRPPRLPRPRPRPMWWPRP | -0.00447
65 | RRIRYRPPRLPRPRPRPINYPRP | -1.12
66 | RRIRCRPPRLPRPRPRPFYLPRP | -0.564
67 | RRIRRRPPRLPRPRPRPSQTPRP | 0.294
68 | RRIRGRPPRLPRPRPRPREYPRP | 0.355
69 | RRIRLRPPRLPRPRPRPIYYPRP | -0.561
70 | RRIRCRPPRLPRPRPRPQLLPRP | -0.23
71 | RRIRKRPPRLPRPRPRPYPEPRP | -0.0874
72 | RRIRQRPPRLPRPRPRPQFHPRP | -0.591
73 | RRIRKRPPRLPRPRPRPPCNPRP | 0.189
74 | RRIRMRPPRLPRPRPRPGPSPRP | 1.23
75 | RRIRCRPPRLPRPRPRPWEAPRP | 0.0139

Row | Sequence | shrunken log2 fold change
76 | RRIRMRPPRLPRPRPRPHRDPRP | 0.169
77 | RRIRWRPPRLPRPRPRPDQRPRP | 0.098
78 | RRIRSRPPRLPRPRPRPINSPRP | 0.0337
79 | RRIRLRPPRLPRPRPRPHCAPRP | -0.309
80 | RRIRGRPPRLPRPRPRPNESPRP | 0.302
81 | RRIRWRPPRLPRPRPRPQNNPRP | -0.622
82 | RRIRQRPPRLPRPRPRPTDRPRP | 0.0938
83 | RRIRWRPPRLPRPRPRPHLGPRP | 0.14
84 | RRIRQRPPRLPRPRPRPSYMPRP | -0.301
85 | RRIRPRPPRLPRPRPRPHMVPRP | -0.0201
86 | RRIRARPPRLPRPRPRPELTPRP | 1.38
87 | RRIRMRPPRLPRPRPRPSIKPRP | -0.0928
88 | RRIRFRPPRLPRPRPRPLITPRP | -0.503
89 | RRIRNRPPRLPRPRPRPYWIPRP | -1.71
90 | RRIRFRPPRLPRPRPRPHWEPRP | -0.0104
91 | RRIRKRPPRLPRPRPRPAQQPRP | 0.344
92 | RRIRWRPPRLPRPRPRPHHGPRP | -0.234
93 | RRIRYRPPRLPRPRPRPTYVPRP | -0.0567
94 | RRIRRRPPRLPRPRPRPCTSPRP | 0.0211
95 | RRIRNRPPRLPRPRPRPRILPRP | -0.0548
96 | RRIRNRPPRLPRPRPRPWFAPRP | 0.801
97 | RRIRDRPPRLPRPRPRPYGCPRP | 0.141
98 | RRIRNRPPRLPRPRPRPRVDPRP | 0.0415
99 | RRIRDRPPRLPRPRPRPWDPPRP | 0.0959
100 | RRIRHRPPRLPRPRPRPMQYPRP | -0.104

Row | Sequence | shrunken log2 fold change
101 | RRIRDRPPRLPRPRPRPSIHPRP | -0.123
102 | RRIRARPPRLPRPRPRPCASPRP | 0.158
103 | RRIRNRPPRLPRPRPRPVYVPRP | -0.284
104 | RRIRRRPPRLPRPRPRPAGCPRP | 0.437
105 | RRIRIRPPRLPRPRPRPQCDPRP | -0.205
106 | RRIRQRPPRLPRPRPRPQQMPRP | 0.156
107 | RRIRLRPPRLPRPRPRPMYAPRP | -0.248
108 | RRIRHRPPRLPRPRPRPRMPPRP | 0.133
109 | RRIRMRPPRLPRPRPRPPFSPRP | 0.239
110 | RRIRERPPRLPRPRPRPFNVPRP | -0.0305
111 | RRIRGRPPRLPRPRPRPWWEPRP | 0.0256
112 | RRIRMRPPRLPRPRPRPIGSPRP | 0.079
113 | RRIRKRPPRLPRPRPRPMCPPRP | 0.199
114 | RRIRYRPPRLPRPRPRPTAFPRP | 0.0438
115 | RRIRARPPRLPRPRPRPMMWPRP | 0.617
116 | RRIRRRPPRLPRPRPRPWAGPRP | 0.0855
117 | RRIRHRPPRLPRPRPRPYHYPRP | -0.125
118 | RRIRGRPPRLPRPRPRPDTWPRP | 0.465
119 | RRIRGRPPRLPRPRPRPFAVPRP | 0.396
120 | RRIRNRPPRLPRPRPRPNKFPRP | -0.597
121 | RRIRHRPPRLPRPRPRPLCFPRP | -0.243
122 | RRIRSRPPRLPRPRPRPSIFPRP | -0.511
123 | RRIRDRPPRLPRPRPRPHILPRP | 0.0348
124 | RRIRYRPPRLPRPRPRPVRPPRP | 0.924
125 | RRIRSRPPRLPRPRPRPAMQPRP | -0.173

Row | Sequence | shrunken log2 fold change
126 | RRIRCRPPRLPRPRPRPPPRPRP | 1.9
127 | RRIRARPPRLPRPRPRPWMVPRP | 0.0197
128 | RRIRWRPPRLPRPRPRPIEDPRP | -0.00101
129 | RRIRYRPPRLPRPRPRPATAPRP | 0.132
130 | RRIRRRPPRLPRPRPRPDLKPRP | 0.162
131 | RRIRRRPPRLPRPRPRPIFTPRP | 0.2
132 | RRIRLRPPRLPRPRPRPKHWPRP | 0.31
133 | RRIRMRPPRLPRPRPRPGRHPRP | 0.441
134 | RRIRTRPPRLPRPRPRPRTGPRP | 0.312
135 | RRIRRRPPRLPRPRPRPREMPRP | 0.513
136 | RRIRRRPPRLPRPRPRPFTIPRP | 0.0518
137 | RRIRHRPPRLPRPRPRPFIWPRP | -0.162
138 | RRIRARPPRLPRPRPRPVILPRP | -0.0803
139 | RRIRCRPPRLPRPRPRPIPCPRP | -0.489
140 | RRIRWRPPRLPRPRPRPRDDPRP | 0.341
141 | RRIRTRPPRLPRPRPRPRFIPRP | -0.806
142 | RRIRMRPPRLPRPRPRPCSGPRP | -0.146
143 | RRIRDRPPRLPRPRPRPHCEPRP | -0.0477
144 | RRIRCRPPRLPRPRPRPPDHPRP | 0.279
145 | RRIRARPPRLPRPRPRPDKTPRP | -0.00345
146 | RRIRNRPPRLPRPRPRPMWWPRP | -0.0071
147 | RRIRHRPPRLPRPRPRPVCCPRP | -0.0885
148 | RRIRRRPPRLPRPRPRPKTHPRP | 0.126
149 | RRIRNRPPRLPRPRPRPIRVPRP | -0.0394
150 | RRIRYRPPRLPRPRPRPNIRPRP | 0.0146
